Assay [1] deals with Dot1 (UniProt Q04089). Briefly: H3-FLAG nucleosome IP, Dot1 blot. As to conditions: reference: WT H3-FLAG; sites T11.
Assay [2] has as its target Dot1 (UniProt Q04089). In words: Dot1-FLAG IP, anti-H3/H4 blot of nucleosomes. As to conditions: reference: wild type H3; sites T11.
Assay [3] has as its target Dot1 (UniProt Q04089). In words: biotinylated peptide pull-down, immunoblot. The conditions noted are these: reference: unmodified H3 (1-23) peptide; sites T11.
For another assay, the target named is Set2 (UniProt P46995). In words: biotinylated peptide pull-down, immunoblot. The conditions noted are these: reference: unmodified H3 (1-23) peptide; sites T11. Background: Immunoblotting shows a protein as a band on a membrane.
A further assay deals with Set1 (UniProt P38827). In words: biotinylated peptide pull-down, immunoblot. The conditions noted are these: reference: unmodified H3 (1-23) peptide; sites T11.
Assay [4] addresses T1, purified endogenous SIR complex (Sir2-FLAG) (S. cerevisiae (endogenous in yeast), UniProt P06700 1-562; P06701 1-978; P11978 1-1358).
T1 construct: NAD-dependent histone deacetylase Sir2, S. cerevisiae; Sir3, S. cerevisiae; named as a subunit of the SIR complex in the introduction; Sir4, S. cerevisiae; also called silent information regulator complex; not shown: FLAG, C-terminal, kept; copies: + +
In words: pull-down; 1.0 µg biotinylated histone peptide incubated with 1 µg purified SIR complex (Sir2-FLAG) in 50 mM Tris-HCl pH 7.5, 250 mM NaCl, 0.1% NP-40, overnight at 4 °C; Streptavidin beads; immunoblot. As to conditions: both partners purified.

Where no end group is shown, it is not given here.

T1 sequence (P06700 whole entry, chain 1 of 3): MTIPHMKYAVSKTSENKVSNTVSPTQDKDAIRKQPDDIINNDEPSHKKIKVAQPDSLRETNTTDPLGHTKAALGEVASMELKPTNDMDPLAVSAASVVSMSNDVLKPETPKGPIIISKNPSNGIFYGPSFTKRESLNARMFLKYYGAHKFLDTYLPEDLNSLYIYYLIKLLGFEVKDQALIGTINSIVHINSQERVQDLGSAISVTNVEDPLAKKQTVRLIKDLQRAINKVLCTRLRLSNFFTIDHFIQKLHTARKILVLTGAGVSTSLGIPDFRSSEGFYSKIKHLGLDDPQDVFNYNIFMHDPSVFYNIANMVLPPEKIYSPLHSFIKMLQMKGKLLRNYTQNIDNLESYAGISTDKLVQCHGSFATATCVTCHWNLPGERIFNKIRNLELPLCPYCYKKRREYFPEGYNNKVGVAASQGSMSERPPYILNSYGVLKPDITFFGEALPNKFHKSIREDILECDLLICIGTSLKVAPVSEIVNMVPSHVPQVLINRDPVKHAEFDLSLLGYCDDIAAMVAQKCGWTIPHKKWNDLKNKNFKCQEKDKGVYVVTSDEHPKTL
T1 sequence (P06701 whole entry, chain 2 of 3): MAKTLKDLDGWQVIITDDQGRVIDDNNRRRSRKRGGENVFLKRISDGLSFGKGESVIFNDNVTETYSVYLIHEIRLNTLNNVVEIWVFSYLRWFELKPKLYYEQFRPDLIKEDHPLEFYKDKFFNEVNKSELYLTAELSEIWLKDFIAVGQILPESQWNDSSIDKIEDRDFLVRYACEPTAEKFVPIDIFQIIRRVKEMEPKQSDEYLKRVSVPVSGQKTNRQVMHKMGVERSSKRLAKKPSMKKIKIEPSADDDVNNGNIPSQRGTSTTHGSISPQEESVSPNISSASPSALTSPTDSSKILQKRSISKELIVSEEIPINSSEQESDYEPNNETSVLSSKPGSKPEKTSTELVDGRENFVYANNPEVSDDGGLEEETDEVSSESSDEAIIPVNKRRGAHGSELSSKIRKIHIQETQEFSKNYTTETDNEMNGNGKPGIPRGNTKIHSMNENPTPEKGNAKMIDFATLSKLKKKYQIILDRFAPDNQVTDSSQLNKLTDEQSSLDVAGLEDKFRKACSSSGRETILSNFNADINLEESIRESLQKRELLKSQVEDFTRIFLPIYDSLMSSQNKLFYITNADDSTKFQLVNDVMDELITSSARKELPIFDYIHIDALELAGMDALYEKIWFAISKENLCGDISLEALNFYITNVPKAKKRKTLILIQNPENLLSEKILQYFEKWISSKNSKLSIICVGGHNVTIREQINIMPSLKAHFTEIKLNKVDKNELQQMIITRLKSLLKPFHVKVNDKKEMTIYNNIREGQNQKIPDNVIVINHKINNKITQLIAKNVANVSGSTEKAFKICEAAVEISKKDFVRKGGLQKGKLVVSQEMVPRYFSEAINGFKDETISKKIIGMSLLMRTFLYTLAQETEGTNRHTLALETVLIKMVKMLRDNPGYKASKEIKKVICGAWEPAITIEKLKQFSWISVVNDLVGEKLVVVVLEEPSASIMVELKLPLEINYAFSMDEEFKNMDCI
T1 sequence (P11978 whole entry, chain 3 of 3): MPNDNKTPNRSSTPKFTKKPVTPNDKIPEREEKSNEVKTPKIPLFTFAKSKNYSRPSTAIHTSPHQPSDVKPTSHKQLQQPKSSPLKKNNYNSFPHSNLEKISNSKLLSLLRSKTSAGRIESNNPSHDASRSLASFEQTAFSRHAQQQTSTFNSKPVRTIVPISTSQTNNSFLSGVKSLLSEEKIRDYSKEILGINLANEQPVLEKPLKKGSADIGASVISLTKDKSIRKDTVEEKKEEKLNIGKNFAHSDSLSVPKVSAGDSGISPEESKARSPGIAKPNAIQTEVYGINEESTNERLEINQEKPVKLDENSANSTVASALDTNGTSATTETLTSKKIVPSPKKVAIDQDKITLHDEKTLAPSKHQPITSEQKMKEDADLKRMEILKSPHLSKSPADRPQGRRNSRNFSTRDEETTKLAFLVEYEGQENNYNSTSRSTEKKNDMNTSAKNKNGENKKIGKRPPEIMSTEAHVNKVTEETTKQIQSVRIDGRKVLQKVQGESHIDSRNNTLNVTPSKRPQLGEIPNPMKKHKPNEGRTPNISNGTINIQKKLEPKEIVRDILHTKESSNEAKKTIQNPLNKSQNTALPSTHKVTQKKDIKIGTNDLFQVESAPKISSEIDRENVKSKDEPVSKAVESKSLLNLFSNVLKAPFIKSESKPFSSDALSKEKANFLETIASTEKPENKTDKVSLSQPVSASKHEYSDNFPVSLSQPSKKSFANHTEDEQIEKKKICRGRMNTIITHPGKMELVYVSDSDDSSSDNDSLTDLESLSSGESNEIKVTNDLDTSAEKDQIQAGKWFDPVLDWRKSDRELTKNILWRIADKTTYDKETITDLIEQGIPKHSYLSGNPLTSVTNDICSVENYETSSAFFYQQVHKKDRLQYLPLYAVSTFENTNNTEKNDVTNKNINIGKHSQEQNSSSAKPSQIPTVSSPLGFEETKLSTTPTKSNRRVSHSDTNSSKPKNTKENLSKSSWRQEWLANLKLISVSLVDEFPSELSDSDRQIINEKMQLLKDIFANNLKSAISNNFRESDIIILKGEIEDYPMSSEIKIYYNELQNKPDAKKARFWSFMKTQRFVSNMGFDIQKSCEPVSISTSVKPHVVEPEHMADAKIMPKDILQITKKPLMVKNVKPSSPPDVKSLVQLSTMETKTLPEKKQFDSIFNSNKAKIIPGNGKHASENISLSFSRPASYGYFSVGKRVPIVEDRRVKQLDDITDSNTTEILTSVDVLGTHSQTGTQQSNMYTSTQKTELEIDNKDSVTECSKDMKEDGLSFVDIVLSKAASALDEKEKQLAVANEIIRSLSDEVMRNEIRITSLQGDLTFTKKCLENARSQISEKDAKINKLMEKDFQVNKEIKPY

Regarding “histone H3 (from UniProt P61830) H3T11A-FLAG”, in the assay with Dot1 [1], the “binding against the reference” value is on record as “stronger”.
Turning to histone H3 (from UniProt P61830) H3T11A, the “binding against the reference” value with Dot1 [2] is recorded as “stronger”.
As for “histone H3 1-23 (from UniProt P61830) H3pT11 (1-23) peptide”, the “binding against the reference” value with Dot1 [3] was “weaker”; in the assay with Set2 it was “same”; with Set1 it was “same”.

B1: Unmodified H3 (72–85) peptide (peptide)
peptide: REIAQDFKTDLRFQ
modifications: also: biotin (position not given here)
notes: histone H3 residues 72-85; also called unmodified H3 peptide; source: synthetic peptide (biotinylated histone peptide)
As for B1, in assay [4], the binding result is given as “binds”.

The values are drawn from article PMC9726891, “SESAME-catalyzed H3T11 phosphorylation inhibits Dot1-catalyzed H3K79me3 to regulate autophagy and telomere silencing” (Nature Communications, 2022).
